The record followed here is patent publication US20230242624A1 (NEURIMMUNE, published 2023).

The chains are these.
T1: MERS-CoV Spike protein fragment (RBD, aa 367-606, His tag) (MERS-CoV, UniProt K9N5Q8 367-606)
T1 sequence: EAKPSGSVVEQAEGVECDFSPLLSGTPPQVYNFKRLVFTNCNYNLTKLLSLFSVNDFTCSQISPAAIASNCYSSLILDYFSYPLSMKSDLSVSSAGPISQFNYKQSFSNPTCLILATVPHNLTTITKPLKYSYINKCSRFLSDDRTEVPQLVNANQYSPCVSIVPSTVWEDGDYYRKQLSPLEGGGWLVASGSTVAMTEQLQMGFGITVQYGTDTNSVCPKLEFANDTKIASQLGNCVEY

B1: NI-607.531_D8 (antibody, V domains shown)
VH: EVQLVESGGGLVQPGRSLRLSCAASGFIFDDYAMHWVRQAPGKGLEWVSGISWNSDSIGYADSVKGRFTISRDNAKNSLYLQMNSLRAEDTALYYCAKGSRSDWSNPSDYWGQGTLVTVSS
VL: SYELTQPPSVSVAPGKTARITCGGNNIGSKSVHWYQQKPGQAPVLVVYDDSDRPSGIPERFSGSNSGNTATLTISRVEAGDEADYYCQVWDSSSDPVVFGGGTKLTVL
B2: NI-607.532_B6 (antibody, V domains shown)
VH: QVQLVQSGAEVKKPGASVKVSCKASGYTFTSYDINWVRQATGQGLEWMGWMNPNSGNTGYAQKFQGRVTMTRNTSISTAYMELSSLRSEDTAVYYCARVVSLTGFFDYWGQGTLVTVSS
VL: B1 VL with S31N, V97W
B3: NI-607.426_F11 (antibody, V domains shown)
VH: QVQLVESGGGLVQPGGSLRLSCAASGFTFSSYWMSWVRQAPGKGLEWVANIKQDGSEKYYVDSVKGRFTISRDNAKNSLYLQMNSLRAEDTAVYYCARGLVGQWLGVDYWGQGTLVTVSS
VL: QSVLTQPHSVSESPGKTVTISCTGSSGSIASNYVQWYQQRPGSAPTTVIYEDNQRPSGVPDRFSGSIDSSSNSASLTISGLKTEDEADYYCQSYDSSNWVFGGGTKLTVL
B4: NI-607.529_G4 (antibody, V domains shown)
VH: QVQLQQWGAGLLKPSETLSLTCAVYGGSFSGYYWSWIRQPPGKGLEWIGEINHSGSTNYNPSLKSRVTISVDTSKNQFSLKLSSVTAADTAVYYCARASLYYSDSSGYSHPYYFDYWGQGTLVTVSS
VL: QPVLTQPPSVSGAPGQRVTISCTGSSSNIGAGYDVHWYQQLPGTAPKLLIYGNSNRPSGVPDRFSGSKSGMSASLAITGLQAEDEADYYCQSYDSSLSGWVFGGGTKLTVL
B5: NI-607.274_B7 (antibody, V domains shown)
VH: QVQLVESGGGRVQPGRSLRLSCAASGFTFSTHGMHWVRQVPGKGLDWITGITYDGSDQFYADSVKGRFTISRDNSKNMLYLQMNSLRAEDTAVYFCAKDLEWLTNYLDHWGQGTLVTVSS
VL: DVVMTQSPGTLSVSPGERATLSCRASQNINYNLAWYQQKPGQAPRLLIFDASTRATGIPARFTGSGSGTEFTLTISSLQSEDFAVYYCQQSNAWLTFGGGTKVEIK
B6: NI-607.274_E5 (antibody, V domains shown)
VH: B5 VH with Q1E, R11M, A24G, V40A, D46E, Q58E, S71A, L107V
VL: B5 VL with V2I, N28S, I29V, V103L
B7: NI-607.426_D4 (antibody, V domains shown)
VH: not shown
VL: EIVLTQSPATLSLSPGERATLSCRASQSVSSYLAWYQQKPGQAPRLLIYDASNRATGIPARFSGSGSGTDFTLTISSLEPEDFAVYYCQQRSNWPPVTFGQGTRLEIK
B8: NI-607.275_C5 (antibody, V domains shown)
VH: QVQLVESGGGLVQPGGSLRLSCAASGFTVSSNYMSWVRQAPGKGLEWVSVIYSGGSTYYADSVKGRFTISRDNSKNTLYLQMNSLRAEDTAVYYCARDFGDYYFDYWGQGTLVTVSS
VL: not shown
B9: NI-607.649_G7 (antibody, V domains shown)
VH: QVQLVESGGGLVQPGGSLRLSCAASGFTFSRYAMSWVRQAPGKGLEWVSAISGSGGSTYYADSVKGRFTISRDNSKNTLYLQINSLRAEDTAVYYCAKGVRWGVDYFDYWGQGTLVTVSS
VL: not shown
B10: NI-607.531_E7 (antibody, V domains shown)
VH: EVQLVESGGGVVQPGRSLRLSCAASGFTFNFYSMHWVRQVPGKGLEWVAVISFDGSTKHYAESLRGRFAVSRDNSKSTLYLQMNSLRPEDTAVYYCASPPLSPIPAAGTPLDYWGQGTLVTVSS
VL: EIVMTQSPDSLAVSLGERATINCKSSQSIFYRSDDKDFLAWYQQKPGQPPKLLISWASTRESGVPDRFSGSGSGTDFTLTISSLQAEDVAVYYCQQFYYTPFTFGPGTKLEIK
notes: also called F31 E7
B11: NI-607.532_F3 (antibody, V domains shown)
VH: EVQLVQSGAEVKKPGESLKISCKGFGYIFSNDWIGWVRQKPGKGLEWMGIIYPGDSDTRYSPSFRGQVTISADKSVSTAYLQWDSLKASDTAVYYCTRPRYTTMIVGSNPFDVWGQGTTVTVSS
VL: QSVLTQPPSVSGAPGQRVTISCTGSSSNIGGGYDVHWYQKLPGTAPKLLIFDNDNRPSGVPDRFSGSKSDTSASLTITGLQAEDEADYFCQSYDSSLSGSGVVFGGGTKLTVL
B12: NI-607.429_B9 (antibody, V domains shown)
VH: EVQLVESGGGLVQPGGSLRLSCAASGFTFSSYWMSWVRQAPGKGLEWVANIKQDGSEKYYVDSVKGRFTISRDNAKNSLYLQMNSLRAEDTAVYYCASLFWRRGSFDPWGQGTLVTVSS
VL: QSVLTQPHSVSESPGKTVTISCTRSTGSIASNYVQWYQQRPGSAPTTVIYEDNQRPSGVPDRFSGSIDSSSNSASLTISGLKTEDEADYYCQSYDTSSYWVFGGGTKLTVL
B13: NI-607.426_E2 (antibody, V domains shown)
VH: EVQLVESGGGLVQPGGSLRLSCAASGFTFSSYDMHWVRQATGKGLEWVSAIGTAGDTYYPGSVKGRFTISRENAKNSLYLQMNSLRAEDTAVYYCARASFLDYSWLYFDYWGQGTLVTVSS
VL: not shown
B14: NI-607.761_B7 (antibody, V domains shown)
VH: EVQLVESGGGVVQPGRSLRLSCAASGFTFTRYGMHWVRQAPGKGLEWVAVIWYDGNNKNYEDSVRGRFTISRDNSKNTLFLQMNSLRAEDTAVYYCARGRRGGYSYGLFDYWGQGILVTVSS
VL: AIRMTQSPSSLSASVGDRVTITCQASQDISNYLNWYQQKPGKAPKLLIYDASNLETGVPSRFSGSGSGTDFTFTISSLQPEDVATYSCQQYDNLPLTFGGGTKVEIK

Residue numbers refer to the chain shown, from its start.

The first assay has as its target T1, MERS-CoV Spike protein fragment (RBD, …). Description: iQue flow cytometry, antigen-coated beads.
With B1, it took 1000 nM to reach a half-maximal effect (EC50).
Same read-out and setting: with B2 the figure was 1000 nM; with B3, 1000 nM; with B4, 1000 nM.
The same measure, in the same setting: next, B5: 900 nM; B6: 900 nM.
The same measure, in the same setting: next, B7: 1000 nM; B8: 800 nM.
In turn, B9 gave an EC50 of 800 nM.
Same read-out and setting: with B10 the figure was 800 nM; with B11, 1000 nM; with B12, 600 nM.
Same read-out and setting: with B13 the figure was 600 nM.
The same measure, in the same setting: with B14 the figure was 200 nM.

Another assay deals with T2, SARS-CoV-2-S1 (RBD)-His protein (Trenzyme) (SARS-CoV-2, UniProt P0DTC2 319-541). Description: iQue flow cytometry, antigen-coated beads. (In general: In flow cytometry, cells or beads pass a laser one at a time.)
Molecule B1 displayed an EC50 of 1.4 nM.
Still for that read-out and setting: next, B2: 1.1 nM; B3: 0.89 nM.
The same measure, in the same setting: with B4 the figure was 1.3 nM; with B5, 0.67 nM.
Still for that read-out and setting: next, B6: 0.39 nM; B7: 0.76 nM.
In the case of B8, the EC50 amounted to 1.5 nM.
On to B9, for which the EC50 is 5.7 nM.
In turn, B10 showed an EC50 of 1.3 nM.
In the case of B11, the concentration for a half-maximal effect (EC50) was 1.2 nM.
On the same count and under the same terms, with B12 the figure was 1.87 nM; with B13, 2.06 nM.
On the same count and under the same terms, next, B14: 0.44 nM.

Another assay has as its target recombinant SARS-CoV Spike protein (RBD, His tag) (SARS-CoV, UniProt P59594 306-527). Description: iQue flow cytometry, antigen-coated beads.
For the molecule B2, the half-maximal effective concentration (EC50) amounted to 4.2 nM.
On the same count and under the same terms, next, B4: 10 nM.
The same measure, in the same setting: with B6 the figure was 900 nM.
On the same count and under the same terms, with B7 the figure was 1000 nM.
As to B9, the EC50 worked out at 22.2 nM.
On the same count and under the same terms, next, B10: 600 nM; B11: 1.3 nM; B14: 200 nM.

A further assay has as its target T2, SARS-CoV-2-S1 (RBD)-His protein …. Description: competition ELISA, RBD binding to coated ACE2. (In general: ELISA stands for enzyme-linked immunosorbent assay.)
For the molecule B3, the IC50 turned out to be 1.14 nM.
Still for that read-out and setting: with B5 the figure was 7.8 nM; with B6, 12.6 nM; with B7, 24.4 nM.
Take B8: the IC50 turned out to be 36.8 nM.
With B10, the IC50 was 3.67 nM.
Same read-out and setting: with B11 the figure was 0.353 nM; with B12, 0.074 nM; with B13, 10.7 nM.
For the molecule B14, the IC50 came out at 56 nM.

In a further assay the target is T3, BSA (Sigma-Aldrich) (bovine, UniProt P02769 25-607).
T3 construct: also called bovine serum albumin; BSA control
Description: direct ELISA on coated BSA.
Consider B1, for which the binding result is “no binding (tested: 400 nM)”.
Same read-out and setting: next, B2: “no binding (tested: 400 nM)”; B3: “no binding (tested: 400 nM)”; B4: “no binding (tested: 400 nM)”.
Same read-out and setting: with B5 the entry was “no binding (tested: 400 nM)”; with B6, “no binding (tested: 400 nM)”; with B7, “no binding (tested: 400 nM)”.
As to B8, the binding result was “no binding (tested: 400 nM)”.
On the same count and under the same terms, next, B12: “no binding (tested: 400 nM)”.
On the same count and under the same terms, with B13 the entry was “no binding (tested: 400 nM)”; with B14, “no binding (tested: 400 nM)”.

A further assay concerns the target SARS-CoV-2 Spike (S) protein on vesicular stomatitis virus (VSV) pseudoviruses (SARS-CoV-2, UniProt P0DTC2 14-1273). Description: cell-based or functional assay.
Turning to B1, the “IC50, pseudovirus entry assay (luciferase, HEK 293T-ACE2 cells)” value was greater than 100 µg/mL.
On the same count and under the same terms, with B2 the figure was 100 µg/mL; with B3, greater than 100 µg/mL; with B4, greater than 100 µg/mL.
Take B5: the “IC50, pseudovirus entry assay (luciferase, HEK 293T-ACE2 cells)” value was greater than 100 µg/mL.
The same measure, in the same setting: next, B9: greater than 100 µg/mL; B10: 3.9 µg/mL; B11: 11.7 µg/mL.
On the same count and under the same terms, next, B12: 7.1 µg/mL.

The target in another assay is T2, SARS-CoV-2-S1 (RBD)-His protein …. Description: direct ELISA on coated RBD-His.
B1 came in with an EC50 of 0.0045 nM.
On the same count and under the same terms, with B2 the figure was 0.0045 nM; with B3, 0.017 nM; with B4, 0.026 nM.
The molecule B5 showed a concentration for a half-maximal effect (EC50) of 0.021 nM.
Take B6: the EC50 was determined as 0.015 nM.
On the same count and under the same terms, with B7 the figure was 0.033 nM; with B8, 0.02 nM; with B9, 0.024 nM.
Consider B10, for which a half-maximal effect (EC50) was put at 0.027 nM.
The same measure, in the same setting: next, B11: 0.019 nM; B12: 0.014 nM; B13: 0.03 nM.
On the same count and under the same terms, with B14 the figure was 0.001 nM.

For orientation: EC50 means the concentration at which the effect is half-maximal. For orientation: IC50 means the concentration that gives 50% inhibition.
